In publication PMC8373112 one finds K half data, which are given here for three substances.

The test system of the series is RqcH-HTF wild-type (Bacillus subtilis). Put plainly: EMSA. Conditions: native tRNA modifications, deacylated; EMSA: HEPES:Polymix buffer, 5 mM Mg2+, 0.1 uM tRNA, 1 uM mRNA(MVF) competitor, 37 C 5 min, gel at 4 C; pull-down: HEPES:Polymix pH 7.5, 1 mM DTT, 5 mM MgOAc …. On the technique in general: A gel shift assay detects complexes by their altered migration in electrophoresis.
The substance tRNAAla registered a K half of 190 nM.
The substance tRNAVal came in with a K half of 390 nM.
The same measure for tRNALys: 310 nM.
